Measured values reported in patent publication US20250313631A1 (HUMMINGBIRD BIOSCIENCE PTE, published 2025).
Blank lines part the entries; values can stand above or below the binder they belong to.

Legend:
[1] = biological target: T1, recombinant human VISTA (His-tagged) (human, UniProt Q9H7M9 33-194); assay: ELISA, plate coated with human B7H5 (VISTA), antibody titrated
T1 construct: bought soluble protein (Sino Biological); also called hVISTA; human VISTA polypeptide

[2] = biological target: T2, cynomolgus macaque VISTA expressed on cells (cynomolgus macaque, UniProt A0A7N9IB00 33-311); assay: flow cytometry, endogenous VISTA on CD11b+ myeloid cells of NHP PBMCs
T2 construct: whole, on cells; also called NHP VISTA on HEK293T cells; VISTA on NHP CD11b+ myeloid cells

[3] = biological target: T1, recombinant human VISTA (His-tagged); assay: ELISA on coated human VISTA, antibody diluted in buffer of pH 6
[4] = biological target: T3, recombinant rat VISTA (His-tagged) (rat, UniProt A0ABK0L5H3 33-192); assay: SPR (Biacore), VISTA-HIS captured, antibody as analyte, 1:1 model; SPR (Biacore), rat VISTA
T3 sequence: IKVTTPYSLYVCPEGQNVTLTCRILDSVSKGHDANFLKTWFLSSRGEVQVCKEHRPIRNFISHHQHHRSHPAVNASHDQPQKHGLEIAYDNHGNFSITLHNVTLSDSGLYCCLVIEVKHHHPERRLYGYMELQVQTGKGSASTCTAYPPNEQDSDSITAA

[5] = biological target: T4, human VISTA expressed on cells (human, UniProt Q9H7M9 33-311); assay: flow cytometry, endogenous VISTA on CD11b+ myeloid cells of PBMCs
T4 construct: also called HEK293 VISTA O/E; HEK293T or HEK293-6E cells overexpressing human VISTA

[6] = biological target: T5, rat VISTA expressed on cells (rat, UniProt A0ABK0L5H3 33-310); assay: as above
T5 construct: whole, on cells; also called rat VISTA on HEK293T cells; VISTA on rat CD11b+ myeloid cells
T5 sequence: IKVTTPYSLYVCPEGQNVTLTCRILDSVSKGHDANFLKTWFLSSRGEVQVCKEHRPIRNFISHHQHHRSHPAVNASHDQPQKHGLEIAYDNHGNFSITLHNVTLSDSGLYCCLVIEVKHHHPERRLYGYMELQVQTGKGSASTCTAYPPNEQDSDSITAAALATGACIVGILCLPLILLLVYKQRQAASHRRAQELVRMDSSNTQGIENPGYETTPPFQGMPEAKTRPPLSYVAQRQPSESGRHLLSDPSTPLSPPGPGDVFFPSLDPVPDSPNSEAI

[7] = biological target: T6, human B7H4 (human, UniProt Q7Z7D3 25-258, limits assumed); assay: ELISA, plate coated with human B7H4, antibody titrated
T6 construct: also called VTCN1
T6 sequence (looked up): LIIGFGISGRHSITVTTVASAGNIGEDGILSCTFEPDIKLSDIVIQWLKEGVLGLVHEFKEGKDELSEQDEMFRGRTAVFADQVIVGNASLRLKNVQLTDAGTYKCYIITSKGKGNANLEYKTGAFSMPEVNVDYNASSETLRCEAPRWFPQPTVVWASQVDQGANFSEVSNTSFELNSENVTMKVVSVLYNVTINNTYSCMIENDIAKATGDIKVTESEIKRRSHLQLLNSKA

[8] = biological target: T1, recombinant human VISTA (His-tagged); assay: ELISA on coated human VISTA, antibody diluted in buffer of pH 5.5
[9] = biological target: T1, recombinant human VISTA (His-tagged); assay: ELISA, VISTA-HIS protein coated; ELISA, human VISTA-HIS
[10] = biological target: T1, recombinant human VISTA (His-tagged); assay: antigen-binding ELISA; HMBD-002 in F4, day 10 at 40°C
[11] = biological target: T1, recombinant human VISTA (His-tagged); assay: antigen-binding ELISA; HMBD-002 in F10, day 30 at 40°C
[12] = biological target: T1, recombinant human VISTA (His-tagged); assay: antigen-binding ELISA; HMBD-002 in F9, day 10 at 40°C
[13] = biological target: T1, recombinant human VISTA (His-tagged); assay: antigen-binding ELISA; HMBD-002 in F2, day 20 at 40°C
[14] = biological target: T1, recombinant human VISTA (His-tagged); assay: antigen-binding ELISA; HMBD-002 10 mg/mL in F2, day 0
[15] = biological target: T1, recombinant human VISTA (His-tagged); assay: antigen-binding ELISA; HMBD-002 in F6, day 20 at 40°C
[16] = biological target: T1, recombinant human VISTA (His-tagged); assay: antigen-binding ELISA; HMBD-002 in F3, day 30 at 40°C
[17] = biological target: T1, recombinant human VISTA (His-tagged); assay: antigen-binding ELISA; HMBD-002 10 mg/mL in F3, day 0
[18] = biological target: T1, recombinant human VISTA (His-tagged); assay: antigen-binding ELISA; HMBD-002 10 mg/mL in F8, day 0
[19] = biological target: T1, recombinant human VISTA (His-tagged); assay: antigen-binding ELISA; HMBD-002 in F7, day 20 at 40°C
[20] = biological target: T1, recombinant human VISTA (His-tagged); assay: ELISA, plate coated with human VISTA
[21] = biological target: T1, recombinant human VISTA (His-tagged); assay: ELISA, plate coated with human VISTA; remark: listed apart in the source

EC50 (read off the curve) [1]: ~0.01 nM
EC50 [2]: 67.6 nM
EC50 [3]: 0.0589 nM
Kd [4]: 0.382 nM
EC50 [5]: 108 nM
EC50 [6]: 48.6 nM
binding result [7]: no binding (tested: about 3e-8 M)
EC50 [8]: 0.0731 nM
EC50 [9]: 0.00512 nM
EC50 [10]: 0.0325 nM
EC50 [11]: 0.027 nM
EC50 [12]: 0.0305 nM
EC50 [13]: 0.0197 nM
EC50 [14]: 0.0339 nM
EC50 [15]: 0.0186 nM
EC50 [16]: 0.0227 nM
EC50 [17]: 0.0308 nM
EC50 [18]: 0.0395 nM
EC50 [19]: 0.0206 nM
B1: V4-C26 hIgG4 (antibody)
heavy: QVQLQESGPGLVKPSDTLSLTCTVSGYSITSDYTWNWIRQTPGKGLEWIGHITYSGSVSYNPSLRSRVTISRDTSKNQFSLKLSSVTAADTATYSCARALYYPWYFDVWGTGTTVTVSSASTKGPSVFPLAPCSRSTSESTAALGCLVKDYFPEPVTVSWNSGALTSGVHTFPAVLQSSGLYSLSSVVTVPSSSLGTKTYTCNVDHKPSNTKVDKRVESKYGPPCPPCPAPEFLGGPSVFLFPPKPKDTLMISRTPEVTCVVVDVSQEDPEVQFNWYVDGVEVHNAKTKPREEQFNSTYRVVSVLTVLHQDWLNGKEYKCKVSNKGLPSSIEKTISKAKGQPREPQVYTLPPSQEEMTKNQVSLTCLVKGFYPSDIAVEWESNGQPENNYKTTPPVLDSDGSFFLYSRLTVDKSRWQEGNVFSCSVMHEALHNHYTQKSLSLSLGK
light: EIVLTQSPATLSLSPGERATLSCRASSSVGYIHWYQQKPGQAPRPIIYTTSNRATGIPARFSGSGSGTDNTLTISSLEPEDSAVYYCQQWSSYPPITFGGGTKLEVKRTVAAPSVFIFPPSDEQLKSGTASVVCLLNNFYPREAKVQWKVDNALQSGNSQESVTEQDSKDSTYSLSSTLTLSKADYEKHKVYACEVTHQGLSSPVTKSFNRGEC
notes: human IgG4 (S228P)/kappa format; also called HMBD-002; HMBD-002-V4C26

EC50 (read off the curve) [20]: ~0.02 nM
B2: anti-VISTA clone V4-C24 IgG1 (antibody, V domains shown)
VH: QVQLQESGPGLVKPSDTLSLTCTVSGYSITSDYTWNWIRQTPGKGLEWIGHITYSGSVSYNPSLRSRVTISRDTSKNQFSLKLSSVTAADTATYSCARALYYPWYFDVWGTGTTVTVSS
VL: EIVLTQSPATLSLSPGERATLSCRASSSVGYIHWYQQKPGQAPRPLIYTTSYRATGIPARFSGSGSGTDNTLTISSLEPEDSAVYYCQQWSSYPPITFGGGTKLEVKR

EC50 (read off the curve) [21]: ~0.01 nM
B3: anti-VISTA clone V4-C26 IgG1 (antibody)
heavy: not shown
light: B1 light
